This note sets out measurements from paper PMC8163098.

Assay [1] concerns the target mouse 80S ribosomes (monosomes) and polysomes (mouse (endogenous in neocortex and Neuro2a)) (UniProt P84099). The assay can be described thus: cryo-EM structure.
For assay [2], the target named is rabbit reticulocyte 60S ribosomal subunit (rabbit (endogenous in reticulocyte lysate)) (UniProt G1SV32). The assay can be described thus: co-sedimentation.

In assay [1], “ErbB3-binding protein 1 (Ebp1), endogenous full-length mouse protein (from UniProt P50580-1 1-394) (natural protein)” gave an overall occupancy of 52%; a percent of ribosomes with Ebp1 bound of 48%; a percent of ribosomes with Ebp1 bound, each of the five sub-states of 50%.

Broadly, the Kd is the constant that tells how readily two partners part at equilibrium. Higher therefore signals weaker binding. In assay [2], “polyhistidine-tagged full-length recombinant Ebp1 (Ebp1-His) (from UniProt P50580 1-394) (natural protein)” gave an Ebp1 concentration at saturated binding (100 nM 60S) of 200 nM and a Kd of 124 nM.
